Reference: publication PMC11099015
pKd: −log10 of the molar value. Where two headings read alike, the source gives them in different places.

Key:
SETD3(1−498) [1] = biological target: SETD3(1−498) (UniProt Q86TU7); experiment: BLI
SETD3(1−498) [2] = biological target: SETD3(1−498) (UniProt Q86TU7); experiment: AUC

Row | Substance | pKd (SETD3(1−498) [1]) | pKd (SETD3(1−498) [1]; 2A KHY(70-72)AAA at 12.5, 6.25, 3.13, 1.56 and 0.78 µM) | stoichiometry N (SETD3(1−498) [2])
1 | CVB3 2A C107A (enzyme) | 7.93 | – | –
2 | EV71 2A C110A K70A; H71A; Y72A | – | 5.76 | –
3 | EV71 2A C110A (enzyme) | 7.64 | – | 1
